The values that follow come from PMC8699718, “A structurally conserved site in AUP1 binds the E2 enzyme UBE2G2 and is essential for ER-associated degradation” (PLoS Biology, 2021).

For experiment [1], the system named is NHK (Null Hong Kong variant of alpha1-antitrypsin). Put plainly: CHX chase: NHK degradation in HT1080 AUP1 KO cells. Type of experiment: cell-based, human. Particulars: for restoration of NHK degradation: full-length or deleted AUP1-FLAG re-expressed in HT1080 AUP1 KO cells, CHX 50 μg/mL. As for the experimental part: Fig 1 The G2BR of AUP1 is required for ERAD of NHK. (A) HT1080 or cells in which HRD1 was knocked out by CRISPR/Cas-9 (HRD1 KO) were transfected with plasmid encoding carboxyl-terminally HA-tagged NHK. Cells were treated with CHX for the indicated times to inhibit protein synthesis and NHK-HA degradation monitored by western blot. GFP and HSP60 serve as transfection efficiency and gel loading controls, respectively. (B) HT1080 or cells in which either AUP1 or gp78 was knocked out (AUP1 KO or gp78 KO) were transfected with NHK-HA and their degradation assessed. (C) AUP1 KO cells were transfected with NHK-HA and empty vector or plasmid encoding carboxyl-terminally FLAG-tagged AUP1 and NHK degradation assessed. (D) Indicated cells were transfected with plasmid encoding carboxyl-terminally MYC-tagged INSIG-1 and assessed for INSIG-1 degradation. (E) Schematic representation of AUP1 in the ER membrane and deletion mutants used in subsequent experiments. Amino acid residues are numbered spanning each domain. (F) AUP1 KO cells were transfected with NHK-HA and plasmids encoding the indicated FLAG-tagged AUP1 WT or deletion mutants and assessed for NHK degradation. (G) HEK293 (Parental) or HEK293 AUP1 KO cells were assessed for degradation of NHK-HA. (H) HEK293 AUP1 KO cells were assessed for NHK-HA degradation as in (F). Markers represent apparent molecular weight in kDa. The data underlying this figure can be found in S1 Data. aa, amino acid; AUP1, ancient ubiquitous protein 1; CHX, cycloheximide; ER, endoplasmic reticulum; ERAD, endoplasmic reticulum–associated degradation; G2BR, UBE2G2 Binding Region; KO, knockout; NHK, Null Hong Kong; WT, wild type.
(§1) Fig 6 Disruption of UBE2G2:G2BR^AUP1 interaction abrogates AUP1 function in cells. (A) GST or indicated GST-AUP1 fusions (aa 292 to 410, expression shown in Coomassie-stained gel) were immobilized on glutathione beads and binding to ^35S-UBE2G2 was assessed as in Fig 3A. Mutations include 2A (R382A/Q383A), 2E (R382E/Q383E), and 5E (R382E/Q383E/K390E/R398E/R400E). (B) AUP1 KO cells were transfected with NHK-HA and forms of full-length AUP1-FLAG with the indicated point mutations from (A) and NHK degradation assessed by CHX chase. (C) Binding assay performed as in (A) with AUP1 mutants predicted to disrupt hydrophobic interactions with UBE2G2. (D) Cellular assay performed as in (B) with AUP1-FLAG mutants that disrupt interactions with UBE2G2 in vitro in (C). The data underlying this figure can be found in S1 Data. aa, amino acid; AUP1, ancient ubiquitous protein 1; CHX, cycloheximide; G2BR, UBE2G2 Binding Region; KO, knockout; WT, wild type.
Fig 8 Recruitment of UBE2G2 to the ER membrane and activation by G2BR^AUP1 is required for ERAD. (A) HT1080 or AUP1 KO cells were transfected with NHK-HA and either empty vector or MYC-UBE2G2 and NHK turnover assessed by CHX chase. (B) AUP1 KO cells were transfected with NHK-HA and GFP fusions of either a scrambled G2BR sequence (SCR) or G2BR^AUP1 and NHK turnover and levels of endogenous UBE2G2 assessed. Luciferase and β-actin served as transfection efficiency and gel loading controls, respectively. (C) AUP1 KO cells were transfected with NHK-HA, MYC-UBE2G2, and either GFP-SCR or GFP-G2BR^AUP1 and NHK turnover assessed. (D) Membrane fractionation was performed on HT1080 or AUP1 KO cells transfected with either empty vector or AUP1-FLAG and localization of UBE2G2 assessed by western blotting. Localization of β-actin (cytosol) and Calnexin (ER membrane) were used as controls for cytosolic (C) and membrane (M) fractions, respectively. (E) Membrane fractionation of AUP1 KO cells transfected with either MYC-UBE2G2 or TM-UBE2G2. (F) HT1080 cells were transfected with TM-UBE2G2 and its localization assessed by confocal microscopy. Images shown are from an optical section after deconvolution. HA-tagged UBE2J2, an ER-localized E2, serves as an ER marker. […]

The target of another experiment is T1, UBE2G2 (Homo sapiens, UniProt P60604).
T1 construct: made in house
T1 sequence (P60604 1-165): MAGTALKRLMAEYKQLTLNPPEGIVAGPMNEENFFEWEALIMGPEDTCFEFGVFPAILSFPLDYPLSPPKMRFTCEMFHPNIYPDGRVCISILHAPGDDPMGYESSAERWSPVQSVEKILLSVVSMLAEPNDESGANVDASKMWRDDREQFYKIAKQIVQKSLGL
Put plainly: GST pulldown of in vitro translated 35S-UBE2G2. Type of experiment: binding. The conditions noted are these: GST-AUP1 aa 292 to 410 on glutathione beads, ~3 pmol GST fusion, ~0.2 pmol E2, overnight 4°C, pH 7.4. Here is the method:
Fig 3 The AUP1–UBE2G2 interaction is required for ERAD. (A) Equimolar amounts of GST-AUP1 (aa 292 to 410) or GST were immobilized on glutathione beads and binding to the indicated in vitro translated ^35S-labeled E2s was assessed. Left panel is 5% of input used for binding. E2s are referred to by their unique alpha-numeric designation (e.g., UBE2G1 and UBE2J1). (B) HT1080 or UBE2G2 KO cells were transfected with INSIG-1-MYC and degradation assessed by CHX chase. […] (D) Cells were transfected with NHK-MYC and HA-ubiquitin and ubiquitination of NHK assessed following proteasome inhibition and IP (right panel). Left panel is 10% of total cell lysate used for IP, indicating no discernable change in total ubiquitination. (E) Levels of endogenous HRD1 were monitored by CHX chase in the indicated cell types. (F) Ubiquitination of endogenous HRD1 was assessed following IP with HRD1 antiserum. Arrow in upper panel indicates migration of unmodified HRD1. Control immunoprecipitates using rabbit serum are shown for comparison. The data underlying this figure can be found in S1 Data. aa, amino acid; AUP1, ancient ubiquitous protein 1; CHX, cycloheximide; ERAD, endoplasmic reticulum–associated degradation; IP, immunoprecipitation; KO, knockout; WT, wild type.
as §1
In vitro translated ^35S methionine-labeled E2s were generated using the E. coli T7-S30 Extract System (Promega) and excess ^35S methionine was removed by desalting twice with Zeba Spin Desalting Columns (Thermo Scientific). GST fusion proteins were quantified by Coomassie blue staining. Moreover, 0.1 μg of GST fusion protein (approximately 3 pmol) was prebound to GS 4B (GE Healthcare) and then incubated with approximately 10^5 cpm of ^35S methionine-labeled E2 (approximately 0.2 pmol) in 200 μl Binding Buffer (25 mM Tris-HCl, pH 7.4, 50 mM NaCl, 5 mM DTT, 0.5% IGEPAL CA-630) overnight at 4°C. Beads were extensively washed in Binding Buffer, resolved on Bis/Tris polyacrylamide gels under reducing conditions, dried and visualized on a Typhoon FLA 7000 (GE Healthcare). Binding was quantified using ImageQuant Software.

B1: AUP1-FLAG: full-length epitope-tagged AUP1 (protein, UniProt Q9Y679 1-410, looked up)
chain: MELPSGPGPERLFDSHRLPGDCFLLLVLLLYAPVGFCLLVLRLFLGIHVFLVSCALPDSVLRRFVVRTMCAVLGLVARQEDSGLRDHSVRVLISNHVTPFDHNIVNLLTTCSTPLLNSPPSFVCWSRGFMEMNGRGELVESLKRFCASTRLPPTPLLLFPEEEATNGREGLLRFSSWPFSIQDVVQPLTLQVQRPLVSVTVSDASWVSELLWSLFVPFTVYQVRWLRPVHRQLGEANEEFALRVQQLVAKELGQTGTRLTPADKAEHMKRQRHPRLRPQSAQSSFPPSPGPSPDVQLATLAQRVKEVLPHVPLGVIQRDLAKTGCVDLTITNLLEGAVAFMPEDITKGTQSLPTASASKFPSSGPVTPQPTALTFAKSSWARQESLQERKQALYEYARRRFTERRAQEAD
modifications: full-length FLAG tag
For the molecule B1, in experiment [1], the “restoration of NHK degradation” value is given as “restored NHK degradation”.

B2: 2A: AUP1 point mutant R382A/Q383A (GST-AUP1 aa 292 to 410) (protein, UniProt Q9Y679 1-410, looked up, variant R382A Q383A)
Lipid droplet-regulating VLDL …: MELPSGPGPERLFDSHRLPGDCFLLLVLLLYAPVGFCLLVLRLFLGIHVFLVSCALPDSVLRRFVVRTMCAVLGLVARQEDSGLRDHSVRVLISNHVTPFDHNIVNLLTTCSTPLLNSPPSFVCWSRGFMEMNGRGELVESLKRFCASTRLPPTPLLLFPEEEATNGREGLLRFSSWPFSIQDVVQPLTLQVQRPLVSVTVSDASWVSELLWSLFVPFTVYQVRWLRPVHRQLGEANEEFALRVQQLVAKELGQTGTRLTPADKAEHMKRQRHPRLRPQSAQSSFPPSPGPSPDVQLATLAQRVKEVLPHVPLGVIQRDLAKTGCVDLTITNLLEGAVAFMPEDITKGTQSLPTASASKFPSSGPVTPQPTALTFAKSSWAAAESLQERKQALYEYARRRFTERRAQEAD
modifications: GST fusion aa 292-410
Take B2: the “binding to UBE2G2” value with UBE2G2 was “unable to disrupt UBE2G2 binding”.

B3: 5E: AUP1 point mutant; GST-AUP1 aa 292 to 410 in vitro, full-length AUP1-FLAG in cells (protein, UniProt Q9Y679 1-410, looked up, variant R382E Q383E K390E R398E R400E)
Lipid droplet-regulating VLDL …: MELPSGPGPERLFDSHRLPGDCFLLLVLLLYAPVGFCLLVLRLFLGIHVFLVSCALPDSVLRRFVVRTMCAVLGLVARQEDSGLRDHSVRVLISNHVTPFDHNIVNLLTTCSTPLLNSPPSFVCWSRGFMEMNGRGELVESLKRFCASTRLPPTPLLLFPEEEATNGREGLLRFSSWPFSIQDVVQPLTLQVQRPLVSVTVSDASWVSELLWSLFVPFTVYQVRWLRPVHRQLGEANEEFALRVQQLVAKELGQTGTRLTPADKAEHMKRQRHPRLRPQSAQSSFPPSPGPSPDVQLATLAQRVKEVLPHVPLGVIQRDLAKTGCVDLTITNLLEGAVAFMPEDITKGTQSLPTASASKFPSSGPVTPQPTALTFAKSSWAEEESLQEREQALYEYAEREFTERRAQEAD
modifications: GST or FLAG tag
notes: AUP1 point mutant; GST-AUP1 aa 292 to 410 in vitro, full-length AUP1-FLAG in cells
As for B3, the “binding to UBE2G2” value with UBE2G2 is “loss of detectable UBE2G2 binding”. Moreover, in experiment [1], the “restoration of NHK degradation” value was “failed to restore NHK degradation”.

B4: 2E: AUP1 point mutant; GST-AUP1 aa 292 to 410 in vitro, full-length AUP1-FLAG in cells (protein, UniProt Q9Y679 1-410, looked up, variant R382E Q383E)
Lipid droplet-regulating VLDL …: MELPSGPGPERLFDSHRLPGDCFLLLVLLLYAPVGFCLLVLRLFLGIHVFLVSCALPDSVLRRFVVRTMCAVLGLVARQEDSGLRDHSVRVLISNHVTPFDHNIVNLLTTCSTPLLNSPPSFVCWSRGFMEMNGRGELVESLKRFCASTRLPPTPLLLFPEEEATNGREGLLRFSSWPFSIQDVVQPLTLQVQRPLVSVTVSDASWVSELLWSLFVPFTVYQVRWLRPVHRQLGEANEEFALRVQQLVAKELGQTGTRLTPADKAEHMKRQRHPRLRPQSAQSSFPPSPGPSPDVQLATLAQRVKEVLPHVPLGVIQRDLAKTGCVDLTITNLLEGAVAFMPEDITKGTQSLPTASASKFPSSGPVTPQPTALTFAKSSWAEEESLQERKQALYEYARRRFTERRAQEAD
modifications: GST or FLAG tag
notes: as for B3
With B4, the “binding to UBE2G2” value with UBE2G2 is “failed to disrupt UBE2G2 binding”. For the same molecule, the “restoration of NHK degradation” value in experiment [1] was “restored degradation of NHK in the AUP1 KO cells, to a degree comparable to WT AUP1”.

B5: A397D: AUP1 point mutant; GST-AUP1 aa 292 to 410 in vitro, full-length AUP1-FLAG in cells (protein)
chain: SPDVQLATLAQRVKEVLPHVPLGVIQRDLAKTGCVDLTITNLLEGAVAFMPEDITKGTQSLPTASASKFPSSGPVTPQPTALTFAKSSWARQESLQERKQALYEYDRRRFTERRAQEAD
modifications: left off: GST, end not stated, kept
notes: as for B3
As for B5, the “binding to UBE2G2” value with UBE2G2 was “Binding was similarly lost”. Further, the “restoration of NHK degradation” value in experiment [1] is “failed to restore NHK degradation”. Besides, the “NHK degradation, doubled amount of plasmid” value in experiment [1] (repeat transfection with doubled amount of mutant, reviewer response) is recorded as “unable to convince ourselves that there is any significant degradation”.

B6: Y394D: AUP1 point mutant (GST-AUP1 aa 292 to 410) (protein)
chain: SPDVQLATLAQRVKEVLPHVPLGVIQRDLAKTGCVDLTITNLLEGAVAFMPEDITKGTQSLPTASASKFPSSGPVTPQPTALTFAKSSWARQESLQERKQALDEYARRRFTERRAQEAD
modifications: left off: GST, end not stated, kept
Turning to B6, the “binding to UBE2G2” value with UBE2G2 was “reduced binding”.
